Results reported in the supplement of paper PMC11136658.

System: peptide library, one residue held at a place counted from the Y acceptor
Experiment: relative phosphorylation of the sub-library (ratio to the mean residue at this position); higher = residue favoured
Summary of the method: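 Every value reflects phosphorylation relative to the mean randomized residue. The sum of the 18 randomized residues, or 16 in the Ser/Thr-free library, served to normalize intensities at each position, which were then multiplied by that number. Intensities came from phosphorimaging with ImageQuant of biotinylated Tyr-centred peptides captured on streptavidin membranes after 90 min with purified recombinant kinases and 50 μM ATP plus γ-32P-ATP.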

Sequence of TEK, construct: aa771-end, human (Q02763 771-1124, looked up): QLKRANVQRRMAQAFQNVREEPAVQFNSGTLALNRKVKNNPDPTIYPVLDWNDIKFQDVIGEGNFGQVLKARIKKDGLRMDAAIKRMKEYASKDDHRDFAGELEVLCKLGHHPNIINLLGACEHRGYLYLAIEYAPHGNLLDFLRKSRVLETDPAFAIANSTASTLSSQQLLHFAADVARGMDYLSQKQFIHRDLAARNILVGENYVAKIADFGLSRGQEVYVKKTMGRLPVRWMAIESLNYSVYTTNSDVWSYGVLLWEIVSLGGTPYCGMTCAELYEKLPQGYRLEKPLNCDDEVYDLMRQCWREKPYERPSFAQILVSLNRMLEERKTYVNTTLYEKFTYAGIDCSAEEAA

TEK, construct: aa771-end, human (from UniProt Q02763)
relative phosphorylation
Details	at +1	at +2	at +3	at +4	at +5	at -1	at -2	at -3	at -4	at -5
A fixed	0.824	0.564	0.495	0.84	1.16	0.673	0.88	0.762	1.02	0.755
D fixed	0.525	0.606	0.254	0.752	0.411	0.863	0.972	0.981	0.932	0.844
E fixed	1.78	1.11	0.233	0.854	0.367	1.07	1.19	1.06	0.927	0.772
F fixed	0.935	1.43	1.97	1.16	0.471	1.19	0.833	1.21	0.976	1.18
G fixed	0.429	0.332	0.395	1.05	1.68	0.512	1.11	0.972	1.3	1.16
H fixed	1.12	0.955	1.47	1.06	0.691	1.2	1.09	1.08	0.997	1.03
I fixed	1.37	1.07	1.89	0.823	0.478	1.42	0.936	0.794	0.792	0.969
K fixed	0.577	0.6	0.665	0.986	0.996	0.594	0.83	0.828	1.26	1.26
L fixed	1.06	1.67	1.49	1.11	0.509	1.92	0.94	0.854	0.908	0.898
M fixed	1.16	1.4	1.18	1.42	0.608	1.5	0.868	0.988	0.839	0.948
N fixed	0.54	1.01	0.429	0.846	0.844	1.03	1.15	1.27	1.09	1.14
P fixed	1.31	0.606	0.505	1.43	3.89	0.878	0.913	1	1.07	0.967
Q fixed	1.15	0.913	0.581	1.31	0.866	0.891	1.25	1.01	1.16	1.03
R fixed	0.705	0.717	0.658	1.05	0.944	0.56	0.935	0.936	1.22	1.37
S fixed	0.816	0.725	0.445	0.795	1.97	0.756	1.06	1.11	0.917	0.963
T fixed	0.951	0.873	0.746	0.734	1.03	0.921	1.08	1.06	0.789	0.955
V fixed	1.89	1.03	1.81	0.871	0.498	1.22	0.926	0.941	0.787	0.852
W fixed	0.848	2.39	2.79	0.901	0.587	0.812	1.02	1.15	1.03	0.901
pThr fixed	0.806	1.6	0.252	0.346	0.313	1.22	0.849	0.769	0.71	0.686
pTyr fixed	2.39	1.81	0.341	0.473	0.276	1.97	0.786	1.34	0.874	0.643

TNK2, construct: aa110-476, human (from UniProt Q07912)
relative phosphorylation
Details	at +1	at +2	at +3	at +4	at +5	at -1	at -2	at -3	at -4	at -5
A fixed	2.37	1	0.658	1.04	1.1	0.664	1.24	1.03	1.2	1.13
D fixed	0.799	0.461	0.257	0.749	1.13	0.346	0.917	0.791	0.737	0.812
E fixed	1.01	0.72	0.202	0.835	1.03	0.323	1	0.671	0.743	0.783
F fixed	0.716	1.39	1.03	0.929	1.22	0.934	0.737	0.901	1.05	0.971
G fixed	1.5	0.489	0.492	1.71	1.08	0.562	1.25	1.18	1.23	1.47
H fixed	0.684	0.724	0.513	1.01	0.897	1.59	1	0.972	1	1.05
I fixed	0.759	1.25	3.15	0.888	0.904	1.64	0.74	0.744	0.767	0.834
K fixed	0.587	0.915	0.316	0.774	0.694	1.3	0.894	1.07	1.2	1.12
L fixed	0.684	0.964	2.32	0.742	1.15	1.73	0.694	0.911	0.779	0.787
M fixed	1.37	1.03	1.07	1.02	0.97	1.26	0.69	0.924	0.89	0.815
N fixed	0.613	0.755	0.359	0.903	0.836	0.7	1.03	1.04	0.958	0.996
P fixed	0.233	1.26	0.881	1.55	1.16	0.809	1.69	1.36	1.3	1.22
Q fixed	1.5	1.03	0.437	0.873	0.955	1.15	1.21	1.03	1.17	0.966
R fixed	0.89	1.32	0.367	0.995	0.543	1.82	1.05	1.32	1.36	1.31
S fixed	1.18	1.02	0.543	1.21	1.01	0.626	1.16	1.12	0.824	0.952
T fixed	1.05	1.25	0.94	1.03	1.14	0.936	0.987	1.02	0.762	0.951
V fixed	1.04	1.32	2.39	0.846	0.949	0.951	0.952	0.825	0.785	0.755
W fixed	1.03	1.11	2.07	0.898	1.22	0.658	0.759	1.1	1.25	1.08
pThr fixed	0.667	1.05	0.311	0.814	0.654	0.486	0.969	0.721	0.716	0.775
pTyr fixed	0.727	2.16	0.495	0.959	1.03	0.669	0.714	0.904	0.888	1
